Data taken from paper PMC10613268, “Shade-induced RTFL/DVL peptides negatively regulate the shade response by directly interacting with BSKs in Arabidopsis” (Nature Communications, 2023).

B1: Sumo-His-RTFL18 (peptide, UniProt Q6X5V0 1-51, looked up)
chain: MEMKRVMMSSAERSKEKKRSISRRLGKYMKEQKGRIYIIRRCMVMLLCSHD
notes: RTFL18 (DVL1), Arabidopsis; full-length coding region cloned into a pET-SUMO vector; source: E. coli BL21 (DB3); not shown: SUMO, N-terminal, kept; His, N-terminal, kept
B2: His-RTFL18 WT (peptide, UniProt Q6X5V0 1-51, looked up)
chain: B1 chain
notes: RTFL18 (DVL1), Arabidopsis; full-length coding region cloned into a pET-SUMO vector; also called 6His-RTFL18 WT (wild type); source: E. coli BL21 (DB3), purified; not shown: His6, N-terminal, kept

Key:
Settings in all cases: both partners purified
GST-BSK6 = target: T1, GST-BSK6 (Arabidopsis, UniProt Q9M324 1-490); assay: pull-down; in vitro (Fig. 4e): Sumo-His-RTFL18 on Ni-NTA beads, then GST or GST-BSK3/BSK6, 4 °C 2 h, 1 × PBS with 1 mM DTT; blot anti-GST, anti-His
T1 construct: BSK6, Arabidopsis; full-length coding region cloned into pGEX4-T-1; source: E. coli BL21 (DB3); not shown: GST, N-terminal, kept

GST-BSK3 WT [1] = target: T2, GST-BSK3 WT (Arabidopsis, UniProt Q8W4L3 1-489); assay: as above
T2 construct: BSK3, Arabidopsis; full-length coding region cloned into pGEX4-T-1; source: E. coli BL21 (DB3), purified; not shown: GST, N-terminal, kept

GST-BSK3 WT [2] = target: T2, GST-BSK3 WT; assay: pull-down; in vitro (Fig. 4l): purified GST-BSK3 WT on glutathione beads, then His-RTFL18 (WT, M1, M2), 4 °C 2 h, 1 × PBS with 1 mM DTT; blot anti-His, anti-GST

T2 sequence (Q8W4L3 whole entry): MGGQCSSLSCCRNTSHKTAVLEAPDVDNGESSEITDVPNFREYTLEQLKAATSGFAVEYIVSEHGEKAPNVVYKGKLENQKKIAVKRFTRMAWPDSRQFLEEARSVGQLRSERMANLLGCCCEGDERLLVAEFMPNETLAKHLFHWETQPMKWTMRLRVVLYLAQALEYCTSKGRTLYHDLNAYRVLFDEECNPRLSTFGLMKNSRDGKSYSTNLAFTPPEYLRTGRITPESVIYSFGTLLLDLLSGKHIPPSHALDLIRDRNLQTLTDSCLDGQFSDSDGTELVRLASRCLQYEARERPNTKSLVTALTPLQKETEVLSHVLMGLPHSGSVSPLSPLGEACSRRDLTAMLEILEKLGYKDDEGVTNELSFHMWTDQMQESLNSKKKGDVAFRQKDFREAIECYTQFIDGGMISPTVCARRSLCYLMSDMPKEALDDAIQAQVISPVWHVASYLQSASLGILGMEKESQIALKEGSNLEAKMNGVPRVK
T1 sequence (Q9M324 whole entry): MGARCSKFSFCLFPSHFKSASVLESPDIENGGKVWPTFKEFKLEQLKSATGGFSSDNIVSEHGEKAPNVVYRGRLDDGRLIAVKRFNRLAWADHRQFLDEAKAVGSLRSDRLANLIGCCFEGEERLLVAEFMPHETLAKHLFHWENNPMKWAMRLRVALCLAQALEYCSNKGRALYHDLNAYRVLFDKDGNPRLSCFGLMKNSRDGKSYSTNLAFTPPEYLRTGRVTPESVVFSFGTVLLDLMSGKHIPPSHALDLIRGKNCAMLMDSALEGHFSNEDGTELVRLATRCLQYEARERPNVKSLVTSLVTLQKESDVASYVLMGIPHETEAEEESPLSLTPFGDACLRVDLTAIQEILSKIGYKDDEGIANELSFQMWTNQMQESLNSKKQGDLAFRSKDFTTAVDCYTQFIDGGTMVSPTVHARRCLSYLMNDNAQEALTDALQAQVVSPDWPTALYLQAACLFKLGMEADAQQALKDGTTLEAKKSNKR

Row | Binder | binding result (GST-BSK6) | binding result (GST-BSK3 WT [1]) | binding result (GST-BSK3 WT [2])
1 | B1 | binds | binds | 
2 | B2 |  |  | binds
